Data: the MegaScale stability set (Tsuboyama et al. 2023)

B1: r16_88_TrROS_Hall (parent)
chain: EVIELKIKFKTPEQREKLKEIAKKLNAEVVEEKDGEVIIRFKTPEQAERALKEAEKLGAEVEL

Variants of: B1
Experiment: folding stability dG (cDNA display proteolysis); higher = more stable
Conditions: PBS, room temperature

| Variant | folding stability dG [kcal/mol] |
| --- | --- |
| EVIELKIKFKTPEQREKLKEIAKKLNAEVVEEKDGEVIIRFKTPEQAERALWEAEKLGAEVEL [K52W] | 4.43 |
| EVIELKIKFKTPEQREKLKEIAKKLNAEVVEEKDGEVIIRFKTPEQAERALYEAEKLGAEVEL [K52Y] | 4.67 |
| EVIELKIKFKTPEQREKLKEIAKKLNAEVVEEKDGEVIIRFKTPEQAERALLEAEKLGAEVEL [K52L] | 4.44 |
| EVIELKIKFKTPEQREKLKEIAKKLNAEVVEEKDGEVIIRFKTPEQAERALEEAEKLGAEVEL [K52E] | 4.07 |
| EVIELKIKFKTPEQREKLKEIAKKLNAEVVEEKDGEVIIRFKTPEQAERALQEAEKLGAEVEL [K52Q] | 4.1 |
| EVIELKIKFKTPEQREKLKEIAKKLNAEVVEEKDGEVIIRFKTPEQAERALIEAEKLGAEVEL [K52I] | 4.03 |
| EVIELKIKFKTPEQREKLKEIAKKLNAEVVEEKDGEVIIRFKTPEQAERALFEAEKLGAEVEL [K52F] | 4.62 |
| EVIELKIKFKTPEQREKLKEIAKKLNAEVVEEKDGEVIIRFKTPEQAERALMEAEKLGAEVEL [K52M] | 4.28 |
| EVIELKIKFKTPEQREKLKEIAKKLNAEVVEEKDGEVIIRFKTPEQAERALAEAEKLGAEVEL [K52A] | 4.52 |
| EVIELKIKFKTPEQREKLKEIAKKLNAEVVEEKDGEVIIRFKTPEQAERALHEAEKLGAEVEL [K52H] | 4.31 |
| EVIELKIKFKTPEQREKLKEIAKKLNAEVVEEKDGEVIIRFKTPEQAERALDEAEKLGAEVEL [K52D] | 4.25 |
| EVIELKIKFKTPEQREKLKEIAKKLNAEVVEEKDGEVIIRFKTPEQAERALREAEKLGAEVEL [K52R] | 4.45 |
| EVIELKIKFKTPEQREKLKEIAKKLNAEVVEEKDGEVIIRFKTPEQAERALVEAEKLGAEVEL [K52V] | 4.2 |
| EVIELKIKFKTPEQREKLKEIAKKLNAEVVEEKDGEVIIRFKTPEQAERALCEAEKLGAEVEL [K52C] | 4.33 |
| EVIELKIKFKTPEQREKLKEIAKKLNAEVVEEKDGEVIIRFKTPEQAERALTEAEKLGAEVEL [K52T] | 4.23 |
| EVIELKIKFKTPEQREKLKEIAKKLNAEVVEEKDGEVIIRFKTPEQAERALPEAEKLGAEVEL [K52P] | 3.91 |
| EVIELKIKFKTPEQREKLKEIAKKLNAEVVEEKDGEVIIRFKTPEQAERALSEAEKLGAEVEL [K52S] | 4.28 |
| EVIELKIKFKTPEQREKLKEIAKKLNAEVVEEKDGEVIIRFKTPEQAERALNEAEKLGAEVEL [K52N] | 4.26 |
| EVIELKIKFKTPEQREKLKEIAKKLNAEVVEEKDGEVIIRFKTPEQAERALGEAEKLGAEVEL [K52G] | 4.44 |
| EVIELKIKFKTPEQREKLKEIAKKLNAEVVEEKDGEVIIRFKTPEQAERALKCAEKLGAEVEL [E53C] | 4.4 |
| EVIELKIKFKTPEQREKLKEIAKKLNAEVVEEKDGEVIIRFKTPEQAERALKAAEKLGAEVEL [E53A] | 4.13 |
| EVIELKIKFKTPEQREKLKEIAKKLNAEVVEEKDGEVIIRFKTPEQAERALKDAEKLGAEVEL [E53D] | 4.34 |

| Variant | folding stability dG [kcal/mol] |
| --- | --- |
| EVIELKIKFKTPEQREKLKEIAKKLNAEVVEEKDGEVIIRFKTPEQAEPALKEAEKLGAEVEL [R49P] | 4.17 |
| EVIELKIKFKTPEQREKLKEIAKKLNAEVVEEKDGEVIIRFKTPEQAEKALKEAEKLGAEVEL [R49K] | 4.15 |
| EVIELKIKFKTPEQREKLKEIAKKLNAEVVEEKDGEVIIRFKTPEQAEYALKEAEKLGAEVEL [R49Y] | 4.93 |
| EVIELKIKFKTPEQREKLKEIAKKLNAEVVEEKDGEVIIRFKTPEQAEQALKEAEKLGAEVEL [R49Q] | 4.41 |
| EVIELKIKFKTPEQREKLKEIAKKLNAEVVEEKDGEVIIRFKTPEQAEEALKEAEKLGAEVEL [R49E] | 4.52 |
| EVIELKIKFKTPEQREKLKEIAKKLNAEVVEEKDGEVIIRFKTPEQAEMALKEAEKLGAEVEL [R49M] | 4.46 |
| EVIELKIKFKTPEQREKLKEIAKKLNAEVVEEKDGEVIIRFKTPEQAEVALKEAEKLGAEVEL [R49V] | 4.5 |
| EVIELKIKFKTPEQREKLKEIAKKLNAEVVEEKDGEVIIRFKTPEQAESALKEAEKLGAEVEL [R49S] | 4.48 |
| EVIELKIKFKTPEQREKLKEIAKKLNAEVVEEKDGEVIIRFKTPEQAEDALKEAEKLGAEVEL [R49D] | 4.56 |
| EVIELKIKFKTPEQREKLKEIAKKLNAEVVEEKDGEVIIRFKTPEQAEIALKEAEKLGAEVEL [R49I] | 4.49 |
| EVIELKIKFKTPEQREKLKEIAKKLNAEVVEEKDGEVIIRFKTPEQAENALKEAEKLGAEVEL [R49N] | 4.35 |
| EVIELKIKFKTPEQREKLKEIAKKLNAEVVEEKDGEVIIRFKTPEQAEAALKEAEKLGAEVEL [R49A] | 4.37 |
| EVIELKIKFKTPEQREKLKEIAKKLNAEVVEEKDGEVIIRFKTPEQAECALKEAEKLGAEVEL [R49C] | 4.42 |
| EVIELKIKFKTPEQREKLKEIAKKLNAEVVEEKDGEVIIRFKTPEQAEFALKEAEKLGAEVEL [R49F] | 4.76 |
| EVIELKIKFKTPEQREKLKEIAKKLNAEVVEEKDGEVIIRFKTPEQAELALKEAEKLGAEVEL [R49L] | 4.53 |
| EVIELKIKFKTPEQREKLKEIAKKLNAEVVEEKDGEVIIRFKTPEQAEGALKEAEKLGAEVEL [R49G] | 4.37 |
| EVIELKIKFKTPEQREKLKEIAKKLNAEVVEEKDGEVIIRFKTPEQAEHALKEAEKLGAEVEL [R49H] | 4.4 |
| EVIELKIKFKTPEQREKLKEIAKKLNAEVVEEKDGEVIIRFKTPEQAETALKEAEKLGAEVEL [R49T] | 4.04 |
| EVIELKIKFKTPEQREKLKEIAKKLNAEVVEEKDGEVIIRFKTPEQAERVLKEAEKLGAEVEL [A50V] | 4.41 |
| EVIELKIKFKTPEQREKLKEIAKKLNAEVVEEKDGEVIIRFKTPEQAERMLKEAEKLGAEVEL [A50M] | 4.3 |
| EVIELKIKFKTPEQREKLKEIAKKLNAEVVEEKDGEVIIRFKTPEQAERFLKEAEKLGAEVEL [A50F] | 4.38 |
| EVIELKIKFKTPEQREKLKEIAKKLNAEVVEEKDGEVIIRFKTPEQAERKLKEAEKLGAEVEL [A50K] | 2.55 |

| Variant | folding stability dG [kcal/mol] |
| --- | --- |
| EVIELKIKFKTPEQREKLKEIAKKLNAEVVEEKDGEVIIRFKTPEQAERLLKEAEKLGAEVEL [A50L] | 4.28 |
| EVIELKIKFKTPEQREKLKEIAKKLNAEVVEEKDGEVIIRFKTPEQAERTLKEAEKLGAEVEL [A50T] | 4.26 |
| EVIELKIKFKTPEQREKLKEIAKKLNAEVVEEKDGEVIIRFKTPEQAERQLKEAEKLGAEVEL [A50Q] | 3.84 |
| EVIELKIKFKTPEQREKLKEIAKKLNAEVVEEKDGEVIIRFKTPEQAERGLKEAEKLGAEVEL [A50G] | 4.46 |
| EVIELKIKFKTPEQREKLKEIAKKLNAEVVEEKDGEVIIRFKTPEQAERRLKEAEKLGAEVEL [A50R] | 2.59 |
| EVIELKIKFKTPEQREKLKEIAKKLNAEVVEEKDGEVIIRFKTPEQAERHLKEAEKLGAEVEL [A50H] | 3.68 |
| EVIELKIKFKTPEQREKLKEIAKKLNAEVVEEKDGEVIIRFKTPEQAERWLKEAEKLGAEVEL [A50W] | 4.69 |
| EVIELKIKFKTPEQREKLKEIAKKLNAEVVEEKDGEVIIRFKTPEQAERNLKEAEKLGAEVEL [A50N] | 3.58 |
| EVIELKIKFKTPEQREKLKEIAKKLNAEVVEEKDGEVIIRFKTPEQAERPLKEAEKLGAEVEL [A50P] | 2.96 |
| EVIELKIKFKTPEQREKLKEIAKKLNAEVVEEKDGEVIIRFKTPEQAERYLKEAEKLGAEVEL [A50Y] | 4.43 |
| EVIELKIKFKTPEQREKLKEIAKKLNAEVVEEKDGEVIIRFKTPEQAERDLKEAEKLGAEVEL [A50D] | 2.77 |
| EVIELKIKFKTPEQREKLKEIAKKLNAEVVEEKDGEVIIRFKTPEQAERCLKEAEKLGAEVEL [A50C] | 4.36 |
| EVIELKIKFKTPEQREKLKEIAKKLNAEVVEEKDGEVIIRFKTPEQAERSLKEAEKLGAEVEL [A50S] | 3.9 |
| EVIELKIKFKTPEQREKLKEIAKKLNAEVVEEKDGEVIIRFKTPEQAERELKEAEKLGAEVEL [A50E] | 3.34 |
| EVIELKIKFKTPEQREKLKEIAKKLNAEVVEEKDGEVIIRFKTPEQAERILKEAEKLGAEVEL [A50I] | 4.4 |
| EVIELKIKFKTPEQREKLKEIAKKLNAEVVEEKDGEVIIRFKTPEQAWRALKEAEKLGAEVEL [E48W] | 4.47 |
| EVIELKIKFKTPEQREKLKEIAKKLNAEVVEEKDGEVIIRFKTPEQARRALKEAEKLGAEVEL [E48R] | 4.25 |
| EVIELKIKFKTPEQREKLKEIAKKLNAEVVEEKDGEVIIRFKTPEQAPRALKEAEKLGAEVEL [E48P] | 3.89 |
| EVIELKIKFKTPEQREKLKEIAKKLNAEVVEEKDGEVIIRFKTPEQASRALKEAEKLGAEVEL [E48S] | 4.39 |
| EVIELKIKFKTPEQREKLKEIAKKLNAEVVEEKDGEVIIRFKTPEQATRALKEAEKLGAEVEL [E48T] | 4.28 |
| EVIELKIKFKTPEQREKLKEIAKKLNAEVVEEKDGEVIIRFKTPEQAVRALKEAEKLGAEVEL [E48V] | 4.17 |
| EVIELKIKFKTPEQREKLKEIAKKLNAEVVEEKDGEVIIRFKTPEQAYRALKEAEKLGAEVEL [E48Y] | 4.67 |

| Variant | folding stability dG [kcal/mol] |
| --- | --- |
| EVIELKIKFKTPEQREKLKEIAKKLNAEVVEEKDGEVIIRFKTPEQAQRALKEAEKLGAEVEL [E48Q] | 4.37 |
| EVIELKIKFKTPEQREKLKEIAKKLNAEVVEEKDGEVIIRFKTPEQAERATKEAEKLGAEVEL [L51T] | 4.76 |
| EVIELKIKFKTPEQREKLKEIAKKLNAEVVEEKDGEVIIRFKTPEQAERAYKEAEKLGAEVEL [L51Y] | 4.08 |
| EVIELKIKFKTPEQREKLKEIAKKLNAEVVEEKDGEVIIRFKTPEQAERAPKEAEKLGAEVEL [L51P] | 2.79 |
| EVIELKIKFKTPEQREKLKEIAKKLNAEVVEEKDGEVIIRFKTPEQAERAHKEAEKLGAEVEL [L51H] | 4.79 |
| EVIELKIKFKTPEQREKLKEIAKKLNAEVVEEKDGEVIIRFKTPEQAERAKKEAEKLGAEVEL [L51K] | 4.61 |
| EVIELKIKFKTPEQREKLKEIAKKLNAEVVEEKDGEVIIRFKTPEQAERANKEAEKLGAEVEL [L51N] | 4.3 |
| EVIELKIKFKTPEQREKLKEIAKKLNAEVVEEKDGEVIIRFKTPEQAERADKEAEKLGAEVEL [L51D] | 3.96 |
| EVIELKIKFKTPEQREKLKEIAKKLNAEVVEEKDGEVIIRFKTPEQAERAWKEAEKLGAEVEL [L51W] | 4.25 |
| EVIELKIKFKTPEQREKLKEIAKKLNAEVVEEKDGEVIIRFKTPEQAERAGKEAEKLGAEVEL [L51G] | 4.45 |
| EVIELKIKFKTPEQREKLKEIAKKLNAEVVEEKDGEVIIRFKTPEQAERAVKEAEKLGAEVEL [L51V] | 4.39 |
| EVIELKIKFKTPEQREKLKEIAKKLNAEVVEEKDGEVIIRFKTPEQAERAIKEAEKLGAEVEL [L51I] | 4.41 |
| EVIELKIKFKTPEQREKLKEIAKKLNAEVVEEKDGEVIIRFKTPEQAERAQKEAEKLGAEVEL [L51Q] | 4.53 |
| EVIELKIKFKTPEQREKLKEIAKKLNAEVVEEKDGEVIIRFKTPEQAERASKEAEKLGAEVEL [L51S] | 4.59 |
| EVIELKIKFKTPEQREKLKEIAKKLNAEVVEEKDGEVIIRFKTPEQAERAMKEAEKLGAEVEL [L51M] | 4.4 |
| EVIELKIKFKTPEQREKLKEIAKKLNAEVVEEKDGEVIIRFKTPEQAERACKEAEKLGAEVEL [L51C] | 4.41 |
| EVIELKIKFKTPEQREKLKEIAKKLNAEVVEEKDGEVIIRFKTPEQAERARKEAEKLGAEVEL [L51R] | 4.61 |
| EVIELKIKFKTPEQREKLKEIAKKLNAEVVEEKDGEVIIRFKTPEQAERAAKEAEKLGAEVEL [L51A] | 4.43 |
| EVIELKIKFKTPEQREKLKEIAKKLNAEVVEEKDGEVIIRFKTPEQAERAFKEAEKLGAEVEL [L51F] | 4.4 |
